# Reference: PMC3395087 (The EMBO Journal, 2012)
# B1: GST–p57 (mouse, wild type) phosphorylated in vitro by activated p38 SAPK (natural protein)
# chain: MERLASSDTFPVIARSSACRSLFGPVDHEELGRELRMRLAELNAEDQNRWDFNFQQDVPLRGPGRLQWMEVDSESVPAFYRETVQVGRCRLQLGPRPPPVAVAVIPRSGPPAGEAPDGLEEAPEQPPSAPASAVVAEPTPPATPAPASDLTSDPIPEVTLVATSDPTPDPIPDANPDVATRDGEEQVPEQVSEQGEESGAEPGDELGTEPVSEQGEEQGAEPVEEKDEEPEEEQGAEPVEEQGAEPVEEQNGEPVEEQDENQEQRGQELKDQPLSGIPGRPAPGTAAANANDFFAKRKRTAQENKASNDVPPGCPSPNVAPGVGAVEQTPRKRLR
# modifications: phosphothreonine at T143 (phosphorylated in vitro by activated GST–p38 SAPK)
# Biological target: GST–CDK2/His–CyclinA complex (human | bovine, UniProt P24941 1-298; P30274 1-430)
# Assay: co-IP
# Chain of GST–CDK2/His–CyclinA complex (P30274 whole entry, one chain of several): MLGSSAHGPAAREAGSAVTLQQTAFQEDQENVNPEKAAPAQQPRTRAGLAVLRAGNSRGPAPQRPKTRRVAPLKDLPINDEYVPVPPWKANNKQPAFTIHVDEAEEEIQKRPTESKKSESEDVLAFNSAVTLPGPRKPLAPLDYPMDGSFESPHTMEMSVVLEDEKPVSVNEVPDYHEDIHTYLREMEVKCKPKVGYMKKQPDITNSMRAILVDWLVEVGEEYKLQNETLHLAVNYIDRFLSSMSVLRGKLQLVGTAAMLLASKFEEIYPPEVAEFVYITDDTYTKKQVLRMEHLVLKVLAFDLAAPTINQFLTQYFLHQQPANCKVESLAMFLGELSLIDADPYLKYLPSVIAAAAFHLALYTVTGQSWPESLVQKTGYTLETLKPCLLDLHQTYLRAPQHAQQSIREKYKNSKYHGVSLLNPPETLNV
binder,measurement,value
B1,fold increase of binding against non-phosphorylated GST–p57,~4 fold
